# In publication PMC9823007:
# Molecular target: NyxA (for SEC-MALS and SAXS) (Brucella abortus 2308) (UniProt Q2YPD9)
# Experiment: SEC-MALS
substance,measurement,value
NyxA (for SEC-MALS and SAXS) (from UniProt Q2YPD9 1-129) (natural protein),stoichiometry N,2
